In patent US5574007 one finds amount of activated protein C formed, 30 min after the polypeptide addition (Example 5) (% larger than with E456Glu) and production of activated protein C data, which are given here for two molecules.

The target in test [1] is protein C.
For test [2], the target named is thrombin.
The target in test [3] is protein C. This is another data set of the same source.
Test [4] concerns the target thrombin. This is another data set of the same source.

B1: polypeptide E456GlaAsp (receptor)
chain: PVEDPCFRANCEYQCQPLNQTSYLCVCAEGFAPIPHEPHRCQMFCNQTACPADCDPNTQASCECPEGYILDDGFICTDIDECENGGFCSGVCHNLPGTFECICGPDSALVRHIGTDC
modifications: gamma-carboxyglutamic acid (Gla) in place of the Glu inserted before Asp367 (third residue of the purified polypeptide, where Edman degradation detected no amino acid; Gla confirmed by amino acid analysis)
For B1, the amount of activated protein C formed, 30 min after the polypeptide addition (Example 5) (% larger than with E456Glu) with protein C [1] and with thrombin [2] was 80 in each case.

B2: polypeptide E45 (receptor)
chain: DPCFRANCEYQCQPLNQTSYLCVCAEGFAPIPHEPHRCQMFCNQTACPADCDPNTQASCECPEGYILDDGFICTDI
With B2, the production of activated protein C with protein C [3] and with thrombin [4] was 1.7 pmol throughout.
